Experimental findings from US9708375 (Amgen, dated 2017) are described below.

The target of test [1] is T1, biotin labeled human recombinant Sclerostin (human, UniProt Q9BQB4 24-213).
T1 construct: also called human Sclerostin; huSOST
T1 sequence (looked up): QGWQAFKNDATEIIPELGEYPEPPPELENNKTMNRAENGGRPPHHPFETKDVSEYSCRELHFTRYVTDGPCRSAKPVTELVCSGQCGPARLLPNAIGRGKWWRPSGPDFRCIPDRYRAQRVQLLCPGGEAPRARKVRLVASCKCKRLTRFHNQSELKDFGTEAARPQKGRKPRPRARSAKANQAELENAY
Description: AlphaScreen Sclerostin/LRP-6 inhibition.

Test [2] addresses T2, human recombinant Dkk-1 (human, UniProt O94907 32-266).
T2 construct: also called human Dkk-1; human Dkk1
T2 sequence (looked up): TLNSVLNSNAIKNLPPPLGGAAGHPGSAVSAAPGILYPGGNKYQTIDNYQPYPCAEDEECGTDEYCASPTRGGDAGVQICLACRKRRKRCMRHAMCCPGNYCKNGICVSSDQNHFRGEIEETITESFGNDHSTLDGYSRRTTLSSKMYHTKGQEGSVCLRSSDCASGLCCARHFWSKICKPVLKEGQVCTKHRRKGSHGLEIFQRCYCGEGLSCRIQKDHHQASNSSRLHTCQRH
Description: AlphaScreen Dkk-1/LRP-6 inhibition. A general note: Alpha assays give light when donor and acceptor beads are brought close together.

B1: P7654 (bispecific antibody, human IgG2, lambda)
heavy: QVQLVESGGGVVQPGRSLRLSCAASGFTFSRYDMHWVRQAPGKGLEWVAIIFYDGSNKYYADPVKGRFTISRDNSKNTLYLQMNSLRAEDTAVYYCATLAAAFDYWGQGTLVTVSSASTKGPSVFPLAPCSRSTSESTAALGCLVKDYFPEPVTVSWNSGALTSGVHTFPAVLQSSGLYSLSSVVTVPSSNFGTQTYTCNVDHKPSNTKVDKTVERKCCVECPPCPAPPVAGPSVFLFPPKPKDTLMISRTPEVTCVVVDVSHEDPEVQFNWYVDGVEVHNAKTKPREEQFNSTFRVVSVLTVVHQDWLNGKEYKCKVSNKGLPAPIEKTISKTKGQPREPQVYTLPPSREEMTKNQVSLTCLVKGFYPSDIAVEWESNGQPENNYKTTPPMLDSDGSFFLYSKLTVDKSRWQQGNVFSCSVMHEALHNHYTQKSLSLSPGKSSGGSCAPNQFACNSYDKCVPAHWVCDGVLDCLDSSDETNCSAPASEPPGSLCPAYTEFLCADSDACFPSEWACDGEMDCVDGSDELHCAYHTSLQ
light: YVLTQPPSVSVAPGQTARITCGGNNIGSKSVHWYQQKPGQAPVLVVYDDSDRPSEIPERFSGSNSGNTATLTISRVEAGDEADYYCQVWDSSSDHVVFGGGTRLTVLGQPKAAPSVTLFPPSSEELQANKATLVCLISDFYPGAVTVAWKADSSPVKAGVETTTPSKQSNNKYAASSYLSLTPEQWKSHRSYSCQVTHEGSTVEKTVAPTECS
notes: also called C140164
On to B1, for which the binding result in test [1] is “binds”.

B2: P7070 (bispecific antibody, human IgG2, lambda)
heavy: QVQLVESGGGVVQPGRSLRLSCAASGFTFSRYDMHWVRQAPGKGLEWVAIIFYDGSNKYYADPVKGRFTISRDNSKNTLYLQMNSLRAEDTAVYYCATLAAAFDYWGQGTLVTVSSASTKGPSVFPLAPCSRSTSESTAALGCLVKDYFPEPVTVSWNSGALTSGVHTFPAVLQSSGLYSLSSVVTVPSSNFGTQTYTCNVDHKPSNTKVDKTVERKCCVECPPCPAPPVAGPSVFLFPPKPKDTLMISRTPEVTCVVVDVSHEDPEVQFNWYVDGVEVHNAKTKPREEQFNSTFRVVSVLTVVHQDWLNGKEYKCKVSNKGLPAPIEKTISKTKGQPREPQVYTLPPSREEMTKNQVSLTCLVKGFYPSDIAVEWESNGQPENNYKTTPPMLDSDGSFFLYSKLTVDKSRWQQGNVFSCSVMHEALHNHYTQKSLSLSPGKSSGGSWCPPNHFMCNSYDKCVPAHWFCDGVLDCLDSSDETNCSAPASEPPGSLCPAYTEFLCKDSDRCFPSEWRCDGEMDCVDGSDELHCAYHTSLQ
light: YVLTQPPSVSVAPGQTARITCGGNNIGSKSVHWYQQKPGQAPVLVVYDDSDRPSEIPERFSGSNSGNTATLTISRVEAGDEADYYCQVWDSSSDHVVFGGGTRLTVLGQPKAAPSVTLFPPSSEELQANKATLVCLISDFYPGAVTVAWKADSSPVKAGVETTTPSKQSNNKYAASSYLSLTPEQWKSHRSYSCQVTHEGSTVEKTVAPTECS
notes: also called P6992; Ab-Avimer-3 (P7070A)
In the case of B2, the binding result in test [1] was “binds”.

B3: P7656 (bispecific antibody, human IgG2, lambda)
heavy: QVQLVESGGGVVQPGRSLRLSCAASGFTFSRYDMHWVRQAPGKGLEWVAIIFYDGSNKYYADPVKGRFTISRDNSKNTLYLQMNSLRAEDTAVYYCATLAAAFDYWGQGTLVTVSSASTKGPSVFPLAPCSRSTSESTAALGCLVKDYFPEPVTVSWNSGALTSGVHTFPAVLQSSGLYSLSSVVTVPSSNFGTQTYTCNVDHKPSNTKVDKTVERKCCVECPPCPAPPVAGPSVFLFPPKPKDTLMISRTPEVTCVVVDVSHEDPEVQFNWYVDGVEVHNAKTKPREEQFNSTFRVVSVLTVVHQDWLNGKEYKCKVSNKGLPAPIEKTISKTKGQPREPQVYTLPPSREEMTKNQVSLTCLVKGFYPSDIAVEWESNGQPENNYKTTPPMLDSDGSFFLYSKLTVDKSRWQQGNVFSCSVMHEALHNHYTQKSLSLSPGKSSGGSCAPNQFRCNSYDKCVPAHWVCDGVLDCLDSSDETNCGGGGSGGGGSCPAYTEFLCKDSDRCFPSEWRCDGEMDCVDGSDELHC
light: YVLTQPPSVSVAPGQTARITCGGNNIGSKSVHWYQQKPGQAPVLVVYDDSDRPSEIPERFSGSNSGNTATLTISRVEAGDEADYYCQVWDSSSDHVVFGGGTRLTVLGQPKAAPSVTLFPPSSEELQANKATLVCLISDFYPGAVTVAWKADSSPVKAGVETTTPSKQSNNKYAASSYLSLTPEQWKSHRSYSCQVTHEGSTVEKTVAPTECS
notes: also called C140166
For B3, the binding result in test [1] is “binds”.

B4: P7069 (bispecific antibody, human IgG2, lambda)
heavy: QVQLVESGGGVVQPGRSLRLSCAASGFTFSRYDMHWVRQAPGKGLEWVAIIFYDGSNKYYADPVKGRFTISRDNSKNTLYLQMNSLRAEDTAVYYCATLAAAFDYWGQGTLVTVSSASTKGPSVFPLAPCSRSTSESTAALGCLVKDYFPEPVTVSWNSGALTSGVHTFPAVLQSSGLYSLSSVVTVPSSNFGTQTYTCNVDHKPSNTKVDKTVERKCCVECPPCPAPPVAGPSVFLFPPKPKDTLMISRTPEVTCVVVDVSHEDPEVQFNWYVDGVEVHNAKTKPREEQFNSTFRVVSVLTVVHQDWLNGKEYKCKVSNKGLPAPIEKTISKTKGQPREPQVYTLPPSREEMTKNQVSLTCLVKGFYPSDIAVEWESNGQPENNYKTTPPMLDSDGSFFLYSKLTVDKSRWQQGNVFSCSVMHEALHNHYTQKSLSLSPGKSSGGSCPAYTEFLCKDSDRCFPSEWRCDGEMDCVDGSDELHCAYHTCAPNQFRCNSYDKCVPAHWVCDGVLDCLDSSDETNCSAPASEPPGSLSLQ
light: YVLTQPPSVSVAPGQTARITCGGNNIGSKSVHWYQQKPGQAPVLVVYDDSDRPSEIPERFSGSNSGNTATLTISRVEAGDEADYYCQVWDSSSDHVVFGGGTRLTVLGQPKAAPSVTLFPPSSEELQANKATLVCLISDFYPGAVTVAWKADSSPVKAGVETTTPSKQSNNKYAASSYLSLTPEQWKSHRSYSCQVTHEGSTVEKTVAPTECS
notes: also called P6991; Ab-Avimer-2 (P7069A)
Regarding B4, the binding result in test [1] was “binds”.

B5: P7078 (bispecific antibody, human IgG2, lambda)
heavy: SGGSWCPPNHFMCNSYDKCVPAHWFCDGVLDCLDSSDETNCSAPASEPPGSLCPAYTEFLCKDSDRCFPSEWRCDGEMDCVDGSDELHCAYHTSQVQLVESGGGVVQPGRSLRLSCAASGFTFSRYDMHWVRQAPGKGLEWVAIIFYDGSNKYYADPVKGRFTISRDNSKNTLYLQMNSLRAEDTAVYYCATLAAAFDYWGQGTLVTVSSASTKGPSVFPLAPCSRSTSESTAALGCLVKDYFPEPVTVSWNSGALTSGVHTFPAVLQSSGLYSLSSVVTVPSSNFGTQTYTCNVDHKPSNTKVDKTVERKCCVECPPCPAPPVAGPSVFLFPPKPKDTLMISRTPEVTCVVVDVSHEDPEVQFNWYVDGVEVHNAKTKPREEQFNSTFRVVSVLTVVHQDWLNGKEYKCKVSNKGLPAPIEKTISKTKGQPREPQVYTLPPSREEMTKNQVSLTCLVKGFYPSDIAVEWESNGQPENNYKTTPPMLDSDGSFFLYSKLTVDKSRWQQGNVFSCSVMHEALHNHYTQKSLSLSPGK
light: YVLTQPPSVSVAPGQTARITCGGNNIGSKSVHWYQQKPGQAPVLVVYDDSDRPSEIPERFSGSNSGNTATLTISRVEAGDEADYYCQVWDSSSDHVVFGGGTRLTVLGQPKAAPSVTLFPPSSEELQANKATLVCLISDFYPGAVTVAWKADSSPVKAGVETTTPSKQSNNKYAASSYLSLTPEQWKSHRSYSCQVTHEGSTVEKTVAPTECS
notes: also called P6886; Ab-Avimer-5 (P7078A)
Regarding B5, the binding result in test [1] is “binds”.

B6: P7649 (bispecific antibody, human IgG2, lambda)
heavy: QVQLVESGGGVVQPGRSLRLSCAASGFTFSRYDMHWVRQAPGKGLEWVAIIFYDGSNKYYADPVKGRFTISRDNSKNTLYLQMNSLRAEDTAVYYCATLAAAFDYWGQGTLVTVSSASTKGPSVFPLAPCSRSTSESTAALGCLVKDYFPEPVTVSWNSGALTSGVHTFPAVLQSSGLYSLSSVVTVPSSNFGTQTYTCNVDHKPSNTKVDKTVERKCCVECPPCPAPPVAGPSVFLFPPKPKDTLMISRTPEVTCVVVDVSHEDPEVQFNWYVDGVEVHNAKTKPREEQFNSTFRVVSVLTVVHQDWLNGKEYKCKVSNKGLPAPIEKTISKTKGQPREPQVYTLPPSREEMTKNQVSLTCLVKGFYPSDIAVEWESNGQPENNYKTTPPMLDSDGSFFLYSKLTVDKSRWQQGNVFSCSVMHEALHNHYTQKSLSLSPGSSGGSCAPNQFRCNSYDKCVPAHWVCDGVLDCLDSSDETNCSAPASEPPGSLCPAYTEFLCKDSDRCFPSEWRCDGEMDCVDGSDELHCAYHTSLQ
light: YVLTQPPSVSVAPGQTARITCGGNNIGSKSVHWYQQKPGQAPVLVVYDDSDRPSEIPERFSGSNSGNTATLTISRVEAGDEADYYCQVWDSSSDHVVFGGGTRLTVLGQPKAAPSVTLFPPSSEELQANKATLVCLISDFYPGAVTVAWKADSSPVKAGVETTTPSKQSNNKYAASSYLSLTPEQWKSHRSYSCQVTHEGSTVEKTVAPTECS
notes: also called C140159
With B6, in test [1], the binding result is reported as “binds”.

B7: P7650 (bispecific antibody, human IgG2, lambda)
heavy: QVQLVESGGGVVQPGRSLRLSCAASGFTFSRYDMHWVRQAPGKGLEWVAIIFYDGSNKYYADPVKGRFTISRDNSKNTLYLQMNSLRAEDTAVYYCATLAAAFDYWGQGTLVTVSSASTKGPSVFPLAPCSRSTSESTAALGCLVKDYFPEPVTVSWNSGALTSGVHTFPAVLQSSGLYSLSSVVTVPSSNFGTQTYTCNVDHKPSNTKVDKTVERKCCVECPPCPAPPVAGPSVFLFPPKPKDTLMISRTPEVTCVVVDVSHEDPEVQFNWYVDGVEVHNAKTKPREEQFNSTFRVVSVLTVVHQDWLNGKEYKCKVSNKGLPAPIEKTISKTKGQPREPQVYTLPPSREEMTKNQVSLTCLVKGFYPSDIAVEWESNGQPENNYKTTPPMLDSDGSFFLYSKLTVDKSRWQQGNVFSCSVMHEALHNHYTQKSLSLSPGSSGGSCGRDHFRCRSYDKCVPAHWLCDGVLDCLDSSDETYCSAPASEPPGSLCPAYTEFLCKDSDRCFPSEWRCDGEMDCVDGSDELHCAYHTSLQ
light: YVLTQPPSVSVAPGQTARITCGGNNIGSKSVHWYQQKPGQAPVLVVYDDSDRPSEIPERFSGSNSGNTATLTISRVEAGDEADYYCQVWDSSSDHVVFGGGTRLTVLGQPKAAPSVTLFPPSSEELQANKATLVCLISDFYPGAVTVAWKADSSPVKAGVETTTPSKQSNNKYAASSYLSLTPEQWKSHRSYSCQVTHEGSTVEKTVAPTECS
notes: also called C140160
For the molecule B7, in test [1], the binding result is recorded as “binds”.
As to CPASYFQCRNNNHCYPMEWRCDGFQDCEDGSDEKGCPYRT (designed binder) [C4229], in test [2], the binding result is on record as “binds”.
Same read-out and setting: under CPSNEFMCADKMCFPLIFLCDGENDCEDGSDEVDCPSRT (designed binder) [C4234] stands “binds”.
